Assay results: patent US20210206875A1, “ERBB-2 TARGETING AGENT AND A BISPECIFIC ANTIBODY WITH ANTIGEN-BINDING SITES THAT BIND AN EPITOPE ON AN EXTRACELLULAR PART OF ERB-2 AND ERBB-3, FOR TREATMENT OF AN INDIVIDUAL WITH AN ERBB-2, ERBB-2/ERBB-3 POSITIVE TUMOUR” (Merus N.V., priority 2017, published 2021)

Target: human ErbB-3 (HER3), on cells (human) (UniProt P21860)
Assay: cell-based or functional assay

B1: #Ab6 (antibody, from another filing, IgG1, V domains shown)
VH: EVQLLESGGGLVQPGGSLRLSCAASGFTFSHYVMAWVRQAPGKGLEWVSSISSSGGWTLYADSVKGRFTISRDNSKNTLYLQMNSLRAEDTAVYYCTRGLKMATIFDYWGQGTLVTVSS
VL: QSALTQPASVSGSPGQSITISCTGTSSDVGSYNVVSWYQQHPGKAPKLIIYEVSQRPSGVSNRFSGSKSGNTASLTISGLQTEDEADYYCCSYAGSSIFVIFGGGTKVTVL
A BxPC3 % Inhibition of -7% and an MCF-7 IC50 (pM), HRG dependent proliferation of 504 pM were found for B1 in this work.
